Data set [1] relates to HeLa Kyoto. As to the kind of experiment: melting temperature (median over replicates), in situ; higher = more thermally stable.
For data set [2], the system named is HeLa Kyoto. As to the kind of experiment: solubility change mitosis vs G1/S (difference of NP-40 vs SDS log2 ratios) (log2 ratio difference); higher = more soluble in mitosis.
For data set [3], the system named is HeLa Kyoto. As to the kind of experiment: thermal stability score vs G1/S (z-score of summed log2 fold changes over temperatures); higher = more thermally stable than in G1/S.
Data set [4] concerns HeLa Kyoto. The data set is described as follows: solubility in G1/S (NP-40 vs SDS abundance) (log2 ratio); higher = more soluble. Conditions: cell cycle stage: G1/S.
Where [5] appears, read: cell cycle stage: early G1 (4.5 h after nocodazole release).
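Throughout, for melting temperature (median over replicates), in situ: HeLa Kyoto cells synchronized by double thymidine or nocodazole block, proteins quantified by TMT10plex mass spectrometry, three independent biological replicates.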
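Throughout, for solubility change mitosis vs G1/S (difference of NP-40 vs SDS log2 ratios): synchronized HeLa Kyoto cells (double thymidine block for G1/S, nocodazole release for mitosis), protein amounts in NP-40 versus SDS lysates quantified by mass spectrometry, three biological replicates.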
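Throughout, for solubility in G1/S (NP-40 vs SDS abundance): HeLa Kyoto cells arrested at G1/S by double thymidine block, proteins quantified by TMT10plex mass spectrometry in mild NP-40 versus SDS extracts, three biological replicates.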
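Throughout, for thermal stability score vs G1/S (z-score of summed log2 fold changes over temperatures): synchronized HeLa Kyoto cells, proteins quantified by TMT10plex mass spectrometry, three biological replicates, mitosis taken 0.5 h after nocodazole release, G1/S directly after double thymidine block.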

MGST3: the melting temperature came out at 56.3 °C in data set [1] (cell cycle stage: G1/S) and 55.7 °C in data set [1] (cell cycle stage: mitosis). For the same substance, in data set [2], the “solubility change mitosis (log2)” value came to 0.0779. Further, the results for the thermal stability score in data set [3] (setting [5]) and in data set [3] (cell cycle stage: mitosis) were -2.44 and -4.93, respectively. In addition, the “solubility in G1/S (log2)” value in data set [4] was -0.272.
As for “MGSVLGLCSMASWIPCLCGSAPCLLCRCCPSGNNSTVTRLIYALFLLVGVCVACVMLIPGMEEQLNKIPGFCENEKGVVPCNILVGYKAVYRLCFGLAMFYLLLSLLMIKVKSSSDPRAAVHNGFWFFKFAAAIAIIIGAFFIPEGTFTTVWFYVGMAGAFCFILIQLVLLIDFAHSWNESWVEKMEEGNSRCWYAALLSATALNYLLSLVAIVLFFVYYTHPASCSENKAFISVNMLLCVGASVMSILPKIQESQPRSGLLQSSVITVYTMYLTWSAMTNEPETNCNPSLLSIIGYNTTSTVPKEGQSVQWWHAQGIIGLILFLLCVFYSSIRTSNNSQVNKLTLTSDESTLIEDGGARSDGSLEDGDDVHRAVDNERDGVTYSYSFFHFMLFLASLYIMMTLTNWYRYEPSREMKSQWTAVWVKISSSWIGIVLYVWTLVAPLVLTNRDFD [SERINC1]”, the melting temperature was 56.2 °C in data set [1] (cell cycle stage: G1/S) and 60.6 °C in data set [1] (cell cycle stage: mitosis). Further, the “solubility change mitosis (log2)” value in data set [2] is -0.141. Also, the thermal stability score in data set [3] (setting [5]) is -4.14; in data set [3] (cell cycle stage: mitosis) it was -5.22. In addition, in data set [4], the “solubility in G1/S (log2)” value was -0.167.
“MGTARWLALGSLFALAGLLEGRLVGEEEAGFGECDKFFYAGTPPAGLAADSHVKICQRAEGAERFATLYSTRDRIPVYSAFRAPRPAPGGAEQRWLVEPQIDDPNSNLEEAINEAEAITSVNSLGSKQALNTDYLDSDYQRGQLYPFSLSSDVQVATFTLTNSAPMTQSFQERWYVNLHSLMDRALTPQCGSGEDLYILTGTVPSDYRVKDKVAVPEFVWLAACCAVPGGGWAMGFVKHTRDSDIIEDVMVKDLQKLLPFNPQLFQNNCGETEQDTEKMKKILEVVNQIQDEERMVQSQKSSSPLSSTRSKRSTLLPPEASEGSSSFLGKLMGFIATPFIKLFQLIYYLVVAILKNIVYFLWCVTKQVINGIESCLYRLGSATISYFMAIGEELVSIPWKVLKVVAKVIRALLRILCCLLKAICRVLSIPVRVLVDVATFPVYTMGAIPIVCKDIALGLGGTVSLLFDTAFGTLGGLFQVVFSVCKRIGYKVTFDNSGEL [ENDOD1]”: the results for the melting temperature in data set [1] (cell cycle stage: G1/S) and in data set [1] (cell cycle stage: mitosis) were 57.6 °C and 56.6 °C, respectively. Further, in data set [2], the “solubility change mitosis (log2)” value was -0.0882. Also, the results for the thermal stability score in data set [3] (setting [5]) and in data set [3] (cell cycle stage: mitosis) were 1.24 and -2.33, respectively. Moreover, in data set [4], the “solubility in G1/S (log2)” value was -0.0976.
Regarding “MGTDSRAAKALLARARTLHLQTGNLLNWGRLRKKCPSTHSEELHDCIQKTLNEWSSQINPDLVREFPDVLECTVSHAVEKINPDEREEMKVSAKLFIVESNSSSSTRSAVDMACSVLGVAQLDSVIIASPPIEDGVNLSLEHLQPYWEELENLVQSKKIVAIGTSDLDKTQLEQLYQWAQVKPNSNQVNLASCCVMPPDLTAFAKQFDIQLLTHNDPKELLSEASFQEALQESIPDIQAHEWVPLWLLRYSVIVKSRGIIKSKGYILQAKRRGS [GCLM]”, the melting temperature in data set [1] (cell cycle stage: G1/S) amounted to 48.3 °C; in data set [1] (cell cycle stage: mitosis), 49 °C. Further, the “solubility change mitosis (log2)” value in data set [2] was -0.0843. In addition, the thermal stability score came to 0.373 in data set [3] (setting [5]) and 1.08 in data set [3] (cell cycle stage: mitosis). The “solubility in G1/S (log2)” value in data set [4] worked out at 0.229.
For “MGTKAQVERKLLCLFILAILLCSLALGSVTVHSSEPEVRIPENNPVKLSCAYSGFSSPRVEWKFDQGDTTRLVCYNNKITASYEDRVTFLPTGITFKSVTREDTGTYTCMVSEEGGNSYGEVKVKLIVLVPPSKPTVNIPSSATIGNRAVLTCSEQDGSPPSEYTWFKDGIVMPTNPKSTRAFSNSSYVLNPTTGELVFDPLSASDTGEYSCEARNGYGTPMTSNAVRMEAVERNVGVIVAAVLVTLILLGILVFGIWFAYSRGHFDRTKKGTSSKKVIYSQPSARSEGEFKQTSSFLV [F11R]”, the melting temperature worked out at 58.9 °C in data set [1] (cell cycle stage: G1/S) and 59.5 °C in data set [1] (cell cycle stage: mitosis). In addition, the “solubility change mitosis (log2)” value in data set [2] was -0.139. Moreover, the thermal stability score was -2.07 in data set [3] (setting [5]) and -2.09 in data set [3] (cell cycle stage: mitosis). Moreover, the “solubility in G1/S (log2)” value in data set [4] was 0.284.
